Experiments:
Assay in all cases: pull-down; His:BPM proteins kept on Ni-NTA agarose beads, incubated with eluted GST-tagged proteins in 0.1 M Tris pH 7.5, 150 mM NaCl, 0.5% NP-40, PMSF, 2 h at 4°C, three washes; blots with anti-GST and anti-His
Conditions in all cases: both partners purified
His:BPM1 = molecular target: T1, His:BPM1 (Arabidopsis thaliana, UniProt Q8L765 1-407)
T1 construct: BPM1, MATH-BTB/POZ protein, Arabidopsis thaliana; cloned into pET21b (NdeI/XhoI); pET21b usually adds a C-terminal His6 tag (surmised); also called His-tagged BPM1; source: E. coli, purified on Ni-NTA agarose beads (remained on the beads)
T1 sequence (looked up): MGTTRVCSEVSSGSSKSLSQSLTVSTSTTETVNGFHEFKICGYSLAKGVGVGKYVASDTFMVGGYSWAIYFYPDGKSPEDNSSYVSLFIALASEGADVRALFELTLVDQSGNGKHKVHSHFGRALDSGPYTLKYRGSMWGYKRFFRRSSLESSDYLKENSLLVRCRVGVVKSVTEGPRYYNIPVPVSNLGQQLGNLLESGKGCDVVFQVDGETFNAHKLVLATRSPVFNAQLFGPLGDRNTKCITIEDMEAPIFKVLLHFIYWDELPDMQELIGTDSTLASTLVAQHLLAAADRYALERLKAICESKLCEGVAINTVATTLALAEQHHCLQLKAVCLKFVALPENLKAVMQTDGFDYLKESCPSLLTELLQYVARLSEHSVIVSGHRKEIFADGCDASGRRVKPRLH

His:BPM3 = molecular target: T2, His:BPM3 (Arabidopsis thaliana, UniProt O22286 1-408)
T2 construct: BPM3, MATH-BTB/POZ protein, Arabidopsis thaliana; cloned into pET21b (NdeI/XhoI); pET21b usually adds a C-terminal His6 tag (surmised); also called His-tagged BPM3; source: E. coli, purified on Ni-NTA agarose beads (remained on the beads)
T2 sequence (looked up): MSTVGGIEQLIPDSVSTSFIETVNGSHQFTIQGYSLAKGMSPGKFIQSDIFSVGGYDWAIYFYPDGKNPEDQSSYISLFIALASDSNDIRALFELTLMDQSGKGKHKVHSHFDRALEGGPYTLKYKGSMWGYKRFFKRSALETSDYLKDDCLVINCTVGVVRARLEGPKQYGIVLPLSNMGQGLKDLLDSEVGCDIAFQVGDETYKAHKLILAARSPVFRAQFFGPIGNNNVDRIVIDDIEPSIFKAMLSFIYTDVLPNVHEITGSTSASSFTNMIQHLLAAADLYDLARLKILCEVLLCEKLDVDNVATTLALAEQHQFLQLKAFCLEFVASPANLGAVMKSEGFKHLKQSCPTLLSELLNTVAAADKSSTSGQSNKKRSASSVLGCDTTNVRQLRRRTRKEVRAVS

His:BPM5 = molecular target: T3, His:BPM5 (Arabidopsis thaliana, UniProt Q1EBV6 1-410)
T3 construct: BPM5, MATH-BTB/POZ protein, Arabidopsis thaliana; cloned into pET21b (NdeI/XhoI); pET21b usually adds a C-terminal His6 tag (surmised); also called His-tagged BPM5; source: E. coli, purified on Ni-NTA agarose beads (remained on the beads)
T3 sequence (looked up): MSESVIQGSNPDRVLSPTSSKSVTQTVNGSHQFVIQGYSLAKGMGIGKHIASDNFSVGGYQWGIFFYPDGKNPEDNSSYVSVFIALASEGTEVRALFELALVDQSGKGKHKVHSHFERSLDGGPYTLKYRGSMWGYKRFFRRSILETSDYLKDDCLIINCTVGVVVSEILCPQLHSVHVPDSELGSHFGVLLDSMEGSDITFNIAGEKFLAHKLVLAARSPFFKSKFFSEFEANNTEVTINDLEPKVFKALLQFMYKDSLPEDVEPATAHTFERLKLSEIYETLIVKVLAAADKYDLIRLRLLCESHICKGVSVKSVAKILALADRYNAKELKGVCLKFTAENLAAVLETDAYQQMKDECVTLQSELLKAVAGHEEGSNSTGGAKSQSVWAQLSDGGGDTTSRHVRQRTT

Measured: binding result

B1: GST:MYB1 (natural protein)
chain: not shown
notes: MYB1, Arabidopsis thaliana, At3g09230, 393 AA; cDNA; GST fusion ~69.7 kDa; Two GST constructs of MYB1 are described (pDEST15 by Gateway; pHB2-GST from the clone DKLAT3G09230); also called GST-tagged MYB1; source: E. coli, purified (glutathione agarose beads), eluted; not shown: GST, N-terminal, kept
binds: all assays above

B2: GST:MYB25 (natural protein)
chain: not shown
notes: MYB25, Arabidopsis thaliana, At2g39880, 367 AA; cDNA in pDEST15; GST fusion ~67.8 kDa; also called GST-tagged MYB25; source: E. coli, purified (glutathione agarose beads), eluted; not shown: GST, N-terminal, kept
binds: all assays above
